This note sets out measurements from paper PMC8092228 (mBio, 2021).

For this experiment, the target named is LOV construct of Brucella abortus LOV-HK with the Nα helix, the LOV core and half of the Jα helix (wild type) (Brucella abortus). Nature of the experiment: SEC with static light scattering (SEC-SLS).

With “LOV construct of Brucella abortus LOV-HK with the Nα helix, the LOV core and half of the Jα helix (wild type) (domain or fragment)”, the stoichiometry N came to 2.

One may read the stoichiometry N as the number of molecules, sites or subunits per partner or assembly.
